# B1: mRNA-splicing (parent)
# chain: AGUUGCUGCUGGGAGCUCCAGCACAGUGAAAUGGACAGAAGGGCAGAGCAA
# Variants of: B1
# Experiment: exon inclusion enrichment index; higher = more inclusion; WT1 exon 5 minigene, HEK293
row,Variant,exon inclusion enrichment index
1,G5A C6U U7A G8U C9A C19G A20C,0.0894
2,G5A C6U U7A G8U C9A C19G A20U,0.0389
3,G5A C6U U7A G8U C9A C19G A20G,0.0128
4,G5A C6U U7A G8U C9A A40G,0.0627
5,G5A C6U U7A G8U C9A A40C,0.241
6,G5A C6U U7A G8U C9A A40U,0.0441
7,G5A C6U U7A G8U C9A A39U,0.0074
8,G5A C6U U7A G8U C9A A39C,0.0192
9,G5A C6U U7A G8U C9A A39G,0.00842
10,G5A C6G U7G C9A U32C G33C,0.00477
11,G5A C6G U7G C9A U32C G33A,0.00102
12,G5A C6G U7G C9A U32C G33U,0.00177
13,G5A C6U U7A G8A C9G,0.0475
14,G5A C6U U7A G8A C9A,0.0655
15,G5A C6U U7A G8A C9U,0.0446
16,G5A C6U U7A G8U C9A A29C A30U,0.0308
17,G5A C6U U7A G8U C9A A29C A30C,0.142
18,G5A C6U U7A G8U C9A A29C A30G,0.219
19,G5A C6U G8C C9A,0.357
20,G5A C6G U7G C9G U10C,0.00245
21,G5A C6G U7G C9G U10G,0.0568

row,Variant,exon inclusion enrichment index
1,G5A C6G U7G C9G U10A,0.00648
2,G5A C6U G8A C9A,0.0634
3,G5A C6U U7A G8U C9A A23U,0.0353
4,G5A C6U U7A G8U C9A A23G,0.157
5,G5A C6U U7A G8U C9A A23C,0.0335
6,G5A C6U U7A G8U C9A A20G G21U,0.0713
7,G5A C6U U7A G8U C9A A20G G21A,0.112
8,G5A C6U U7A G8U C9A A20G G21C,0.11
9,G5A C6U G8C C9U U10C,0.807
10,G5A C6G U7G C9A U32A G33C,0.0011
11,G5A C6G U7G C9A U32A G33A,0.00102
12,G5A C6G U7G C9A U32A G33U,0.00206
13,G5A C6U U7A G8U C9A C22A,0.0781
14,G5A C6U U7A G8A U10C,0.863
15,G5A C6U U7A G8U C9A A25U G26C,0.157
16,G5A C6U U7A G8U C9A A25U G26A,0.0732
17,G5A C6U U7A G8U C9A A25U G26U,0.0803
18,G5A C6G U7G C9A U10C,0.00449
19,G5A C6G U7G C9A U10A,0.00068
20,G5A C6G U7G C9A U10G,0.00589
21,G5A C6U U7A G8U C9A A14G G15U,0.00355

row,Variant,exon inclusion enrichment index
1,G5A C6U U7A G8U C9A A14G G15A,0.0192
2,G5A C6U U7A G8U C9A A14G G15C,0.0123
3,G5A C6U U7A G8U C9A A39U A40G,0.0054
4,G5A C6U U7A G8U C9A A39U A40C,0.142
5,G5A C6U U7A G8U C9A A39U A40U,0.0161
6,G5A C6G U7G C9A G46C A47U,0.00364
7,G5A C6G U7G C9A G46C A47G,0.00214
8,G5A C6G U7G C9A G46C A47C,0.00161
9,G5A C6U U7A G8U C9A A23U C24G,0.128
10,G5A C6U U7A G8U C9A A23U C24A,0.0228
11,G5A C6U U7A G8U C9A A23U C24U,0.000794
12,G5A C6U U7A G8U C9A A47C G48A,0.0387
13,G5A C6U U7A G8U C9A A47C G48C,0.0967
14,G5A C6U U7A G8U C9A A47C G48U,0.0767
15,G5A C6G U7G G8A U10C,0.159
16,G5A C6G U7G C9A G46U A47G,0.00156
17,G5A C6G U7G C9A G46U A47C,0.0165
18,G5A C6G U7G C9A G46U A47U,0.00177
19,G5A C6U U7A G8U C9A A30G,0.0451
20,G5A C6U U7A G8U C9A A30U,0.0249
21,G5A C6U U7A G8U C9A A30C,0.0649

row,Variant,exon inclusion enrichment index
1,G5A C6G U7G C9A G42U,0.00622
2,G5A C6G U7G C9A G42A,0.025
3,G5A C6G U7G C9A G42C,0.0041
4,G5A C6U U7A G8U C9A C16A,0.0643
5,G5A C6U U7A G8U C9A C16G,0.0112
6,G5A C6U U7A G8U C9A C16U,0.0512
7,G5A C6U U7A G8U C9A A25G,0.293
8,G5A C6U U7A G8U C9A A25C,0.501
9,G5A C6U U7A G8U C9A A25U,0.138
10,G5A C6U U7A G8U C9A A45G G46U,0.0592
11,G5A C6U U7A G8U C9A A45G G46C,0.131
12,G5A C6U U7A G8U C9A A45G G46A,0.447
13,G5A C6U U7A G8U C9A A31G U32A,0.855
14,G5A C6U U7A G8U C9A A31G U32G,0.0411
15,G5A C6U U7A G8U C9A A31G U32C,0.424
16,G5A C6G U7G C9A G41C G42U,0.0271
17,G5A C6G U7G C9A G41C G42C,0.0196
18,G5A C6G U7G C9A G43A C44G,0.0259
19,G5A C6G U7G C9A G43A C44A,0.0069
20,G5A C6G U7G C9A G43A C44U,0.00188

# Reference: the RNAGym collection of RNA variant scans (doi:10.1101/gr.219683.116)
